Laboratory results published in IntAct's records for PubMed 15234987.

B1: Zinc finger protein ZFPM1 (Mus musculus), O35615 (parent)
chain: MSRRKQSNPRQIKRSLRDMEAGEEAKAMDSSPKEQEAPDPEAPAIEEPPSPPREDVSPPAVPAPPESPEDPEDMEGQELEMRPQDEEKEEKEEEAAMASPWSGPEELELALQDGQRCVRARLSLTEGLSWGPFYGSIQTRALSPEREEPGPAVTLMVDESCWLRMLPQVLTEEAANSEIYRKDDALWCRVTKVVPSGGLLYVRLVTEPHGAPRHPVQEPVEPGGLAPVHTDIQLLPQQAGMASILATAVINKDVFPCKDCGIWYRSERNLQAHLLYYCASRQRAGSPVSATEEKPKETYPNERVCPFPQCRKSCPSASSLEIHMRSHSGERPFVCLICLSAFTTKANCERHLKVHTDTLSGVCHNCGFISTTRDILYSHLVTNHMVCQPGSKGEIYSPGAGHPAAKLPPDSLAGFQQHSLMHSPLVPADKAPTPSSGLDSKAEVTNGETRVPPQNGGSSESPAAPRTIKVEAAEEPEATRASGPGEPGPQAPSRTPSPHSPNPVRVKTELSSPTPGSSPGPGELTMAGTLFLPQYVFSPDAGTTTVPTAPQASEILAKMSELVHNRLQQGAGSSGAAGTPTGLFSGTKGATCFECEITFNNINNFYVHKRLYCSGRRAPEDPPTVRRPKAATGPARAPAGAAAEPDPSRSSPGPGPREEEASGTTTPEAEAAGRGSEGSQSPGSSVDDAEDDPSRTLCEACNIRFSRHETYTVHKRYYCASRHDPPPRRPPAPTTAPGPAAPALTAPPVRTRRRRKLYELPAAGAPPPAAGPAPVPVVPSPTAELPSSPRPGSASAGPAPALSPSPVPDGPIDLSKRPRRQSPDAPTALPALADYHECTACRVSFHSLEAYLAHKKYSCPAAPLRTTALCPYCPPNGRVRGDLVEHLRQAHGLQVAKPAASPGAEPRTPAERAPRDSPDGRAPRSPSPAPENTPSDPADQGARTPSKGPPAPAPAPGGGGGHRYCRLCNIRFSSLSTFIAHKKYYCSSHAAEHVK

Variants of: B1
Details: with tacc3_mouse Tacc3, Q9JJ11
Sequence of tacc3_mouse Tacc3, Q9JJ11 (Q9JJ11 whole entry): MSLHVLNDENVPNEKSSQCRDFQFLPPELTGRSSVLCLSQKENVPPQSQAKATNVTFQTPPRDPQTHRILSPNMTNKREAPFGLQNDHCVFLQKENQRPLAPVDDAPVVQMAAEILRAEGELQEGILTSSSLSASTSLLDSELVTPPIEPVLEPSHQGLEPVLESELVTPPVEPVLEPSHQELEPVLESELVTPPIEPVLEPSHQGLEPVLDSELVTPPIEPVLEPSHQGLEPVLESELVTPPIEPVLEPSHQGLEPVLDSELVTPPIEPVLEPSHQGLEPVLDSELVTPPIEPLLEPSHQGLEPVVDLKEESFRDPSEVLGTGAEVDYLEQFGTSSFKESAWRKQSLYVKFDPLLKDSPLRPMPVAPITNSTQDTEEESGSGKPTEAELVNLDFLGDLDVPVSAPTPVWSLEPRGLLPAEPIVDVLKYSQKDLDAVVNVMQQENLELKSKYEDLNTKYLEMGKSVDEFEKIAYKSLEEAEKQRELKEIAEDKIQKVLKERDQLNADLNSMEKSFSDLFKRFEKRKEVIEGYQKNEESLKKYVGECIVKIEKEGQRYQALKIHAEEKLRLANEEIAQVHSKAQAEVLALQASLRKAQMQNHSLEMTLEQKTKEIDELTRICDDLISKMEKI

Effect of a mutation on the interaction, decreasing interaction:
N347A
T343A
V354A
R350A
T344A
